Laboratory results from patent publication US20120100166A1 (ZYNGENIA, published 2012).
No end group written: not given here.

Tests used:
angiopoietin-2 (Ang2) [1] = target: T1, angiopoietin-2 (Ang2) (human, UniProt O15123 68-496, limits assumed, biotinylated in Examples 22-24 (R&D cat#BT633)); experiment: ELISA, rhAng2 coated, MRD-MBP fusion detected with HRP anti-MBP mAb; EC50 from a 4 parameter fit
T1 construct: also called rhAng2; recombinant Ang2
T1 sequence (looked up): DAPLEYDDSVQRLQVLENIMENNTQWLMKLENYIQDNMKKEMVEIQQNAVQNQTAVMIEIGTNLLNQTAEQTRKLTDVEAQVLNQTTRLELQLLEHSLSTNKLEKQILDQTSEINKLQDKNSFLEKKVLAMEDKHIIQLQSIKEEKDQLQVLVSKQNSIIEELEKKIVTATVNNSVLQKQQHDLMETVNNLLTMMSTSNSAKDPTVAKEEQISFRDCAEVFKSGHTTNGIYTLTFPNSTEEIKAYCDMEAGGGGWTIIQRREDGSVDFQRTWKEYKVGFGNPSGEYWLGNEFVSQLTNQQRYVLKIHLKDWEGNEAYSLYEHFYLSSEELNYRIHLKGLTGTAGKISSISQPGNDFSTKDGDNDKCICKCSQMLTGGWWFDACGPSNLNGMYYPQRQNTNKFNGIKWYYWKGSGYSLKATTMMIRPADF

angiopoietin-2 (Ang2) [2] = target: T1, angiopoietin-2 (Ang2); experiment: MBP fusion protein tested for binding to Ang2; method not restated (direct-binding ELISA in Example 19)
Description: For detection of direct binding of MRD-MBP fusions to Ang2, the following ELISA was performed. […] MBP fusion proteins were serially diluted in Blocking buffer and added to wells for 2 hours at RT. After washing (8×300 μl wash buffer), samples were treated with HRP-mouse anti MBP mAb (NEB, cat #E8038S), diluted 1:4000 in Blocking buffer. After incubation for 1 hour at RT, wells were washed (8×3000 wash buffer) prior to receiving 100 μl of TMB substrate (KPL Laboratories). Color development was stopped with 100 μl of H₂SO₄, and absorbance was read at 450 nm.

[3] = target: integrin αvβ3 (ELISA antigen) (UniProt P06756 31-992; P05106 27-718, limits assumed); experiment: ELISA on coated antigen, absorbance at 405 nm, BSA-coated wells as control; single condition; the bar is labelled Antigen, taken as the target of the MRD of the construct
Chain of integrin αvβ3 (ELISA antigen) (P06756 31-992 limits assumed, chain 1 of 2): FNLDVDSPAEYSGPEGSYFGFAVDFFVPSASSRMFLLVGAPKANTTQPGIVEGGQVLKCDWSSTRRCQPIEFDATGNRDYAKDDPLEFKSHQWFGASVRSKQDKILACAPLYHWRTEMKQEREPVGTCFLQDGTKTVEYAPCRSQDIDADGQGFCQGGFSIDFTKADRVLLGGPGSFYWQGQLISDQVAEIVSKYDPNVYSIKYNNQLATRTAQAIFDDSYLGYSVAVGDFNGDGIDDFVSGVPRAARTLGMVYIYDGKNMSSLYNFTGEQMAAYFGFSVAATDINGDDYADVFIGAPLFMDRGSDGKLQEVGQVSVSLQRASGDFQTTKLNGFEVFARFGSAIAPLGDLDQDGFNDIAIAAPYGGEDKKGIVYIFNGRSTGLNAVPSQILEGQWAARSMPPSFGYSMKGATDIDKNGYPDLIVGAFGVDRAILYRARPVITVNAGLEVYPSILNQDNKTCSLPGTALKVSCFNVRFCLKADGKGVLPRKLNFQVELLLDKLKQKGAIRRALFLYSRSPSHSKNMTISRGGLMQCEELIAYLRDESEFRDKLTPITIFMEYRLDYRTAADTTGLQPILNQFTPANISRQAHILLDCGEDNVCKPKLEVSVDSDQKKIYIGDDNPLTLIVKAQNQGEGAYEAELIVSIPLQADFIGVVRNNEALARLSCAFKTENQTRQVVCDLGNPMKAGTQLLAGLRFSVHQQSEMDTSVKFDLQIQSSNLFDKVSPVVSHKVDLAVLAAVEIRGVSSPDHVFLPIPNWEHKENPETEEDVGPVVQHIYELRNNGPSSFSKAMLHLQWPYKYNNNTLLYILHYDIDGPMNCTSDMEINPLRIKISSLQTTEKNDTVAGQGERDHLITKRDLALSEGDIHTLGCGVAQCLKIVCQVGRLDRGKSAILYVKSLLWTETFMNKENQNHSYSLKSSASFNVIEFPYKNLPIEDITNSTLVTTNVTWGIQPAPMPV
Chain of integrin αvβ3 (ELISA antigen) (P05106 27-718 limits assumed, chain 2 of 2): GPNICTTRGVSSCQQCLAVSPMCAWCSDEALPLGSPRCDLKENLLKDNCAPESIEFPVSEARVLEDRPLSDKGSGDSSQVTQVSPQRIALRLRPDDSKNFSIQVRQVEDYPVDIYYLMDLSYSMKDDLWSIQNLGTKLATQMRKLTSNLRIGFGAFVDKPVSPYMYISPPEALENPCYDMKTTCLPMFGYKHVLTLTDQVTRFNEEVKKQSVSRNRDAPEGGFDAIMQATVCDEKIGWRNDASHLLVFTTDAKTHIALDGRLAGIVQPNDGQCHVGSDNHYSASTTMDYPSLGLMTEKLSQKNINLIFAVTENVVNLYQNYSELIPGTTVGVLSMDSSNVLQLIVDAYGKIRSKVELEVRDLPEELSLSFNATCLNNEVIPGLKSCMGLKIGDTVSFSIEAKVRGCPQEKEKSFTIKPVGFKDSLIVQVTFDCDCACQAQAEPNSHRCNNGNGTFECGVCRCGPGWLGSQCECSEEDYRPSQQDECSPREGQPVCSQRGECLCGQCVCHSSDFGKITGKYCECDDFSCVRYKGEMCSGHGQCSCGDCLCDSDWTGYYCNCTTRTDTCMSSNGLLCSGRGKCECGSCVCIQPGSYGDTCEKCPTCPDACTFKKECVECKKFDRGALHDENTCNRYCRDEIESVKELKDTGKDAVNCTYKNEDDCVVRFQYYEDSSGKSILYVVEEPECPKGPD

[4] = target: T2, insulin-like growth factor-I receptor (IGF1R) (UniProt P08069 31-932, limits assumed); experiment: ELISA on coated antigen, absorbance at 405 nm, BSA-coated wells as control; single condition
T2 construct: also called immobilized IGF-1R; IGR1R

Binder | EC50 (angiopoietin-2 (Ang2) [1]) [nM] | EC50 (angiopoietin-2 (Ang2) [2]) [nM] | further results
MGAQTNFMPMSDDELLLYEQFILQQGLE (other) [L1-7D MSD] | 1.38 | – | –
KSLSLSPGSGGGSMGAQTNFMPMDNDELLLYEQFI (other, not shown: large carriers; small tags and cut ends, not fully specified (N-terminus); also: fused to maltose binding protein carrier at N-terminus) [LM32 variant SEQ ID NO:142 expressed as MBP fusion protein] | – | 1.08 | –
KSLSLSPGSGGGSMGAQTNFMPMDNEELLLYEQFI (other, not shown: large carriers; small tags and cut ends, not fully specified (N-terminus); also: fused to maltose binding protein carrier at N-terminus) [LM32 variant SEQ ID NO:143 expressed as MBP fusion protein] | – | 20.7 | –
KSLSLSPGSGGGSMGAQTNFMPMDNDEGLLYEQFILQQGLE (other, not shown: large carriers; small tags and cut ends, not fully specified (N-terminus); also: fused to maltose binding protein carrier at N-terminus) [LM32 variant SEQ ID NO:88 expressed as MBP fusion protein] | – | 1.04 | –
KSLSLSPGSGGGSMGAQTNFMPMDNDEALLYEQFIYQQGLE (other, not shown: large carriers; small tags and cut ends, not fully specified (N-terminus); also: fused to maltose binding protein carrier at N-terminus) [LM32 variant SEQ ID NO:94 expressed as MBP fusion protein] | – | 0.392 | –
KSLSLSPGSGGGSMGAQTNFMPMDNDELTLYEQFILQQGLE (other, not shown: large carriers; small tags and cut ends, not fully specified (N-terminus); also: fused to maltose binding protein carrier at N-terminus) [LM32 variant SEQ ID NO:91 expressed as MBP fusion protein] | – | 1.42 | –
KSLSLSPGSGGGSMGAQTNFMPMDNDEGLLYEEFILQQGLE (other, not shown: large carriers; small tags and cut ends, not fully specified (N-terminus); also: fused to maltose binding protein carrier at N-terminus) [LM32 variant SEQ ID NO:96 expressed as MBP fusion protein] | – | 0.922 | –
KSLSLSPGSGGGSMGAQTNFMPMDNDEALLYEQFILQQGLE (other, not shown: large carriers; small tags and cut ends, not fully specified (N-terminus); also: fused to maltose binding protein carrier at N-terminus) [LM32 variant SEQ ID NO:90 expressed as MBP fusion protein] | – | 0.182 | –
KSLSLSPGSGGGSMGAQTNFMPMDQDELLLYEQFILQQGLE (other, not shown: large carriers; small tags and cut ends, not fully specified (N-terminus); also: fused to maltose binding protein carrier at N-terminus) [LM32 variant SEQ ID NO:99 expressed as MBP fusion protein] | – | 0.383 | –
KSLSLSPGSGGGSMGAQTNFMPMDDDELLLYEQFILQQGLE (other, not shown: large carriers; small tags and cut ends, not fully specified (N-terminus); also: fused to maltose binding protein carrier at N-terminus) [LM32 variant SEQ ID NO:100 expressed as MBP fusion protein] | – | 0.24 | –
KSLSLSPGSGGGSMGAQTNFMPMDNDEGLLYEQFIYQQGLE (other, not shown: large carriers; small tags and cut ends, not fully specified (N-terminus); also: fused to maltose binding protein carrier at N-terminus) [LM32 variant SEQ ID NO:93 expressed as MBP fusion protein] | – | 0.902 | –
KSLSLSPGSGGGSMGAQTNFMPMDNDEALLYEEFILQQGLE (other, not shown: large carriers; small tags and cut ends, not fully specified (N-terminus); also: fused to maltose binding protein carrier at N-terminus) [LM32 variant SEQ ID NO:97 expressed as MBP fusion protein] | – | 0.426 | –
Her-sL-RGD4C (bispecific antibody, also called C-terminal fusion of integrin αvβ3 targeting MRD with the ErbB2 antibody with the short linker peptide; not shown: kappa light chain constant region; heavy chain constant region) light (part 1 of 2): not shown light (part 2 of 2): GGGSCDCRGDCFC heavy: not shown | – | – | binding result [3]: no binding (tested: not shown)
MGAQTNFMPMHDDELLLYEQFILQQGLE (other) [L1-7D MHD] | 17 | – | –
MGAQTNFMPMTDDELLLYEQFILQQGLE (other) [L1-7D MTD] | 7.34 | – | –
MGAQTNFMPMNDDELLLYEQFILQQGLE (other) [L1-7D MND] | 0.411 | – | –
PGSGGGSMGAQTNFMPMDNDELLLYEQFILQQGLE (other) [Lm32 KtoS] | 0.199 | – | –
MGAQTNFMPMGDDELLLYEQFILQQGLE (other) [L1-7D MGD] | 0.6 | – | –
Her-1L-RP (bispecific antibody, also called Her-lL-RP; not shown: kappa light chain constant region; heavy chain constant region) light (part 1 of 2): not shown light (part 2 of 2): SSGGGGSGGGGGGSSRSSSFYSCLESLVNGPAEKSRGQWDGCRKK heavy: not shown | – | – | binding result [4]: no binding (tested: not shown)
